For three molecules, EC50 and Kd results are on record in patent publication US20210246210A1 (JIANGSU ALPHAMAB BIOPHARMACEUTICALS, published 2021).

One experiment addresses T1, CTLA4-muFc (human).
T1 construct: also called soluble human CTLA4
Nature of the experiment: ELISA, CTLA4-muFc coated, anti-human Fc-HRP detection (FIG. 2, Panel C). Here is the method: A 96-well plate was coated with CTLA4-muFc (human CTLA4 extracellular domain fused to the N-terminus of mouse Fc, its amino acid sequence is as set forth in SEQ ID NO: 52). Various concentrations of the samples as well as control molecules were added. HRP labeled goat anti-human Fc antibody was used for detection. After being developed with TMB, the plate was read at a wavelength of 450/650 nm in a microplate reader.
In general terms: In an ELISA, binding on a coated surface is turned into a signal by an enzyme label.

The target in the next experiment is T2, PD-L1-muFc (human).
T2 construct: also called soluble human PD-L1
Nature of the experiment: ELISA, PD-L1-muFc coated, anti-human Fc-HRP detection (FIG. 2, Panel B). The procedure: A 96-well plate was coated with PD-L1-muFc (human PD-L1 extracellular domain fused to N-terminus of mouse Fc, its amino acid sequence is as set forth in SEQ ID NO: 53). Various concentrations of the samples as well as control molecules were added. HRP labeled goat anti-human Fc antibody was used for detection. After being developed with TMB, the plate was read at a wavelength of 450/650 nm in a microplate reader.

The next experiment deals with human PD-L1 (WT) (human, UniProt Q9NZQ7 19-238, limits assumed). Nature of the experiment: method not stated; PD-L1 ISVD-9 on human PD-L1 WT.
Chain of human PD-L1 (WT) (Q9NZQ7 19-238 limits assumed): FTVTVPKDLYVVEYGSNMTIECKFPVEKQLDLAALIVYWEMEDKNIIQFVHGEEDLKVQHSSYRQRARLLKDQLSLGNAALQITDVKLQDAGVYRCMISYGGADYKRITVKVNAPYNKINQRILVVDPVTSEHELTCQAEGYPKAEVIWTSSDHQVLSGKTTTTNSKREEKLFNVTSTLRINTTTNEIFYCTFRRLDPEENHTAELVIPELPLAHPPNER

T1 sequence (chain, as listed by the source limits assumed): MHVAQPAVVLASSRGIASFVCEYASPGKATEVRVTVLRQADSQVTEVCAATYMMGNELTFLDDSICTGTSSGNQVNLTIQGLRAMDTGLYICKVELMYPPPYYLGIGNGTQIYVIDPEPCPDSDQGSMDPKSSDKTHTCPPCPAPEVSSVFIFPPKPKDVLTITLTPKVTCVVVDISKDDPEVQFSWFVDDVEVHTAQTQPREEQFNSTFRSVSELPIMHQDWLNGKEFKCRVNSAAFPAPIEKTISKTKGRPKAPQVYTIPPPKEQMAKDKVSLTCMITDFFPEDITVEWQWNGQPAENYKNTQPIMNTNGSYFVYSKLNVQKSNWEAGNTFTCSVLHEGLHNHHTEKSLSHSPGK
T2 sequence (chain, as listed by the source limits assumed): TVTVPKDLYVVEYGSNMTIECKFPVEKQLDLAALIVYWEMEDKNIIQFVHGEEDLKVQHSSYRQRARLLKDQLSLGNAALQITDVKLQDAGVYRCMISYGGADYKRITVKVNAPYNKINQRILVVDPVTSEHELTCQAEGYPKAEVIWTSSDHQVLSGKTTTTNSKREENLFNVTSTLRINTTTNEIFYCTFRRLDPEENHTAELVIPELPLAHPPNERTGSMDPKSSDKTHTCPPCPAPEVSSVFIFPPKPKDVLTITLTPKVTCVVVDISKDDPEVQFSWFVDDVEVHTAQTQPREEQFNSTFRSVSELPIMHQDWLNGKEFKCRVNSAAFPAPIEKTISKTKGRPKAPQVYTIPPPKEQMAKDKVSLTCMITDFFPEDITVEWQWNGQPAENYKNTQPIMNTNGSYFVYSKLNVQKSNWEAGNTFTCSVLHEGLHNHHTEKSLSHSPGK

B1: ipilimumab (antibody, V domains shown)
VH: QVQLVESGGGVVQPGRSLRLSCAASGFTFSSYTMHWVRQAPGKGLEWVTFISYDGNNKYYADSVKGRFTISRDNSKNTLYLQMNSLRAEDTAIYYCARTGWLGPFDYWGQGTLVTVSS
VL: not shown
In turn, B1 had an EC50 with CTLA4-muFc of around 0.5 nM.

B2: durvalumab (antibody, V domains shown)
VH: EVQLVESGGGLVQPGGSLRLSCAASGFTFSRYWMSWVRQAPGKGLEWVANIKQDGSEKYYVDSVKGRFTISRDNAKNSLYLQMNSLRAEDTAVYYCAREGGWFGELAFDYWGQGTLVTVSS
VL: EIVLTQSPGTLSLSPGERATLSCRASQRVSSSYLAWYQQKPGQAPRLLIYDASSRATGIPDRFSGSGSGTDFTLTISRLEPEDFAVYYCQQYGSLPWTFGQGTKVEIK
B2 had an EC50 with PD-L1-muFc of around 0.6 nM.

B3: PD-L1 ISVD-9 (VHH)
VHH: QVQLVESGGGLVQPGGSLRLSCAASGKMSSRRCMAWFRQAPGKERERVAKLLTTSGSTYLADSVKGRFTISRDNSKNTVYLQMNSLRAEDTAVYYCAADSFEDPTCTLVTSSGAFQYWGQGTLVTVSS
notes: also called aPDL1.9; humanized variant of PD-L1 ISVD-4
B3: the Kd in the experiment with human PD-L1 (WT) was determined as 5.92 nM.

A word on the EC50: it is the concentration that produces a half-maximal response. Read a high EC50 as a less potent agent. Usually Kd stands for the concentration at which binding is half-saturated. The low end stands for a tighter complex, the high end for a looser complex.
